{
  "source": "paper PMC2739136",
  "proteins": {"B1": {"name": "native TraR (wild type) (protein)", "chain": "MQHWLDKLTDLAAIEGDECILKTGLADIADHFGFTGYAYLHIQHRHITAVTNYHRQWQSTYFDKKFEALDPVVKRARSRKHIFTWSGEHERPTLSKDERAFYDHASDFGIRSGITIPIKTANGFMSMFTMASDKPVIDLDREIDAVAAAATIGQIHARISFLRTTPTAEDAAWLDPKEATYLRWIAVGKTMEEIADVEGVKYNSVRVKLREAMKRFDVRSKAHLTALAIRRKLI"}},
  "key": {"MBP-TraR S160F, P33905": {"target": "T1, MBP-TraR S160F, P33905", "T1 chain": "B1 chain with S160F", "assay": "pull-down"}, "MBP-TraR T225S, P33905": {"target": "T2, MBP-TraR T225S, P33905", "T2 chain": "B1 chain with T225S", "assay": "pull-down"}},
  "note": "Residue numbers refer to the chain shown, from its start.",
  "data": [
    {"protein": "B1", "values": [
      {"measurement": "heterodimer formation (% of wild type) (% of wild type)", "setting": "MBP-TraR S160F, P33905", "result": 69},
      {"measurement": "heterodimer formation (% of wild type) (% of wild type)", "setting": "MBP-TraR T225S, P33905", "result": 43}
    ]}
  ]
}
